Data on one molecule can be found in patent publication US20180368743, “GRAPHENE-BASED NANOSENSOR FOR IDENTIFYING TARGET ANALYTES” (THE TRUSTEES OF COLUMBIA UNIVERSITY IN THE CITY OF NEW NEW …, published 2018).

Holding throughout (details): G4
The target of one series is T1, Somatostatin (Homo sapiens, UniProt P61278 P61278:103-116).
T1 chain: AGCKNFFWKTFTSC
The series can be described thus: graphene FET current change <1.3% at up to 1 uM vs 8.5% for insulin; normalized response <0.192. As for the experimental part:
(§1) To examine the specificity of the nanosensor to insulin over other related analogues that might interfere with the detection of insulin, glucagon and somatostatin, which were secreted by the pancreatic islet alpha and delta cells, respectively, were evaluated as negative control analytes. This is because glucagon [molecular weight (MW): 3.5 kD, PI: 6.2], promoting […] by the liver and together with somatostatin (MW: 1.63 kD, PI: 5.6) regulating the secretion of insulin, share similar physical properties with insulin, which can affect the sensing performance. The functionalized graphene nanosensor was first exposed to somatostatin solutions prior to the introduction of insulin. The change in Ids, denoted as ΔIds, was recorded throughout the experiment and compared as the response of the aptameric nanosensor to the given solutions. To minimize errors caused by device-to-device nonuniformity, the time-resolved selective response as the ratio of ΔIds to ΔIds,max (the maximum value of ΔIds) was calculated:
where Ids,PBS is the Ids measured in fresh PBS buffer. […] On the contrary, the calculated ΔIds/ΔIds,max value increased and reached 1.0 at […] insulin with stepwise increments in the insulin concentration (FIG. 101A).
Additionally, a similar real-time monitoring control experiment was conducted with glucagon (FIG. 107). […]

For a further series, the target named is Insulin (Homo sapiens, UniProt P01308;P01308 P01308:25-54,P01308:90-110). The series can be described thus: graphene FET, PBS pH 7.4, Hill-Langmuir fit of Dirac voltage shift. Here is the method: The nanosensor insulin measuring capabilities were subsequently tested in PBS buffer. Insulin solutions of increasing concentrations from 100 pM to […] were sequentially introduced to the PDMS chamber of the nanosensor. The binding of insulin to the IGA3 aptamer was allowed to reach equilibrium before the replenishment of sample solutions.
Sequence of Insulin (P01308 25-54, chain 1 of 2): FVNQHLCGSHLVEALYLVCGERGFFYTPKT
Sequence of Insulin (P01308 90-110, chain 2 of 2): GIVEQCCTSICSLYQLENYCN
The binding of insulin and aptamer was allowed to reach equilibrium for 10 min before the replenishment of higher concentration insulin solution. Thus, the dipping time of graphene in solutions was increased with the ongoing experiment. The slight decrease in the minimum of Ids (Ids,min,) in the transfer characteristic curve, observed in FIG. 99A was considered as a result of the increase in the ionic strength caused by the evaporation of PBS buffer (150 mM NaCl) with increasing dipping time.
Further, the equilibrium dissociation constant (KD) for the IGA3 aptamer and insulin with different VDirac at corresponding insulin concentrations was evaluated using the aptamer-functionalized GFETs. […] The change in VDirac, denoted as ΔVDirac, is plotted as a function of insulin concentrations with error bars obtained from three different devices (FIG. 99B).

For another series, the target named is Glucagon (Homo sapiens, UniProt P01275 P01275:53-81). As to the kind of experiment: graphene FET current change <1.3% at up to 1 uM vs 8.5% for insulin. As for the experimental part:
as §1
Additionally, a similar real-time monitoring control experiment was conducted with glucagon (FIG. 107). […] Here, ΔIds,S(C)=Ids,S(C)−Ids,PBS, where Ids,S(C) is the Ids measured at the binding equilibrium for given solutions (insulin/glucagon/somatostatin) at representative tested concentrations.

Sequence of Glucagon (P01275 53-81, one chain of several): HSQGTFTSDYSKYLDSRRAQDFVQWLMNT

Broadly, the Kd is the concentration at which binding is half-saturated. For the molecule GGTGGTGGGGGGGGTTGGTAGGGTGTCTTC (ssDNA, 5'-NH2 (coupled to PASE on graphene)) [IGA3 insulin aptamer], the binding result with Somatostatin and in the series with Glucagon was “no binding” throughout. Moreover, the Kd with Insulin was determined as 35 nM.
